Reference: patent publication US20230192897A1 (NUMAB THERAPEUTICS, published 2023)

How the values were obtained:
[1] = molecular target: T1, biotinylated human PDL1 (human, UniProt Q9NZQ7 19-238, limits assumed, biotinylated); assay: competition ELISA B7.1/PDL1
T1 construct: also called biotinylated PDL1
Procedure, shortened: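 Test mixtures containing biotinylated human PDL1 were pre-incubated 1 h at room temperature, then incubated 1.5 h on the plate under agitation. Bound PDL1 detected with 10 ng/ml streptavidin-polyHRP40 and TMB, stopped at 6 min with HCl, read at 450 nm minus 690 nm. IC₅₀ from 4PL fit.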

[2] = molecular target: human PDL1 on cells (human, UniProt Q9NZQ7 19-290); assay: cell-based or functional assay
[3] = molecular target: T2, cynomolgus PDL1-Fc chimeric protein (cynomolgus monkey, UniProt G7PSE7 19-239); assay: SPR
T2 construct: PDL1-Fc chimeric protein from different species captured on the chip
Procedure, shortened: (§1)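 Kinetics were fitted with a one-to-one Langmuir model to give apparent ka, kd and KD. Binders at 0.12-90 nM (three-fold series) flowed 3 min, with 10 min dissociation and 3 M MgCl₂ regeneration, on a Biacore T200.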

[4] = molecular target: T3, Fc tagged human PDL1 (human, UniProt Q9NZQ7 19-239); assay: SPR
T3 construct: Bought (Sino Biological, cat. 10084-H02H); captured on the SPR chip; also called PDL1-Fc chimeric protein
Procedure, shortened: as §1

[5] = molecular target: T1, biotinylated human PDL1; assay: competition ELISA PD-1/PDL1
[6] = molecular target: T4, human serum albumin (human, UniProt P02768 25-609); assay: SPR, SA coupled to chip, pH 5.5
T4 construct: Coupled directly to the CM5 chip; also called HSA; human SA
Protocol: Affinity of molecules to serum albumin (SA) of the different species was determined by SPR measurements using a Biacore T200 device (GE Healthcare). SA was directly coupled to a CM5 sensor chip (GE Healthcare) using amine coupling chemistry. […] The assay was run in a 1× PBS-Tween buffer at pH 5.5.

[7] = molecular target: T5, CD137 on Jurkat NFkB reporter cells (human, UniProt Q07011 24-255); assay: cell-based or functional assay
[8] = molecular target: T6, Fc tagged human CD137 (human, UniProt Q07011 24-186); assay: SPR
T6 construct: also called CD137-Fc chimeric protein
Procedure, shortened: as §1

[9] = molecular target: cynomolgus CD137-Fc chimeric protein (cynomolgus monkey, UniProt A9YYE7 24-186); assay: SPR
Procedure, shortened: as §1

[10] = molecular target: T5, CD137 on Jurkat NFkB reporter cells; assay: cell-based or functional assay; remark: listed apart in the source

Binder	IC50 [1]	rel. IC50 (IC50 avelumab/IC50 test) [1]	IC50 (ng/ml), NF-AT potency assay [2]	rel. IC50 (avelumab/test) [2]	koff [3]	kon [3]	koff [4]	kon [4]	IC50 [5]	rel. IC50 (IC50 avelumab/IC50 test) [5]	Kd [4]	IC50 (ng/ml), NF-AT potency assay, +HSA [2]	rel. IC50 (avelumab/test), +HSA [2]	Area under the curve (calculated using PRO885 normalized data), first line (6 h by the order of the upper part) [7]	Area under the curve (calculated using PRO885 normalized data), second line (24 h by the order of the upper part) [7]	EC50 [ng/ml], NF-kB reporter, HCC827 + IFNg, +HSA, 6 h [7]	IC10/EC90 ratio, first line (6 h by the order of the upper part) [7]	IC10/EC90 ratio, second line (24 h by the order of the upper part) [7]	Maximum NF-kB activation (rel. to PRO1186) [%], first line (6 h by the order of the upper part) [7]	Maximum NF-kB activation (rel. to PRO1186) [%], second line (24 h by the order of the upper part) [7]	also measured
PRO830 (scFv, anti-PDL1 scFv; also called 33-03-G02 sc01 scFv; 33-03-G02 CDR) scFv: DIQMTQSPSSLSASVGDRVTITCQASQSINDYLAWYQQKPGKAPKLLIYKASTLASGVPSRFSGSGSGTDFTLTISSLQPEDFATYYCQQGYIITDIDNVFGTGTKVTVLGGGGGSGGGGSGGGGSGGGGSQVQLQESGPGLVKPSETLSLTCKVSGFSFSSGYDMCWIRQPPGKGLEWIGCVVAGSVDITYYASWAKGRVTISVDSSKNQFSLKLSSVTAADTAVYYCARKDAYSDAFNLWGQGTLVTVSS	12.9 ng/mL	1.16 fold	42.9 ng/mL	0.73 fold	0.0002 s⁻¹	2.2e+06 M⁻¹ s⁻¹	0.00016 s⁻¹	2.1e+06 M⁻¹ s⁻¹	3.4 ng/mL	0.61 fold											
PRO1013 (scFv, anti-PDL1 scFv; also called 37-20-B03 sc02 scFv; 37-20-B03 CDR, VH1) scFv: DIQMTQSPSSLSASVGDRVTITCQASQSIGTYLAWYQQKPGKAPKLLIYRAFILASGVPSRFSGSGSGTDFTLTISSLQPEDFATYYCQSNFYSDSTTIGPNAFGTGTKVTVLGGGGGSGGGGSGGGGSGGGGSQVQLVQSGAEVKKPGASVKVSCKASGFSFNSDYWIYWVRQAPGQGLEWMGSIYGGSSGNTQYASWAQGRVTMTRDTSISTAYMELSSLRSEDTAVYYCARGYVDYGGATDLWGQGTLVTVSS	4.05 ng/mL	3.68 fold	21.3 ng/mL	1.6 fold	0.00032 s⁻¹	5.9e+06 M⁻¹ s⁻¹	0.00027 s⁻¹	6e+06 M⁻¹ s⁻¹	0.57 ng/mL	3.67 fold	45 pM										
PRO997 (scFv, also called 37-20-B03 sc01 scFv; 37-20-B03 CDR) scFv: DIQMTQSPSSLSASVGDRVTITCQASQSIGTYLAWYQQKPGKAPKLLIYRAFILASGVPSRFSGSGSGTDFTLTISSLQPEDFATYYCQSNFYSDSTTIGPNAFGTGTKVTVLGGGGGSGGGGSGGGGSGGGGSQVQLQESGPGLVKPSETLSLTCKVSGFSFNSDYWIYWIRQPPGKGLEWIGSIYGGSSGNTQYASWAQGRVTISVDSSKNQFSLKLSSVTAADTAVYYCARGYVDYGGATDLWGQGTLVTVSS	6.36 ng/mL	2.34 fold	11.1 ng/mL	3.07 fold	< 1e-05 s⁻¹	6e+06 M⁻¹ s⁻¹	< 2e-05 s⁻¹	5.9e+06 M⁻¹ s⁻¹	0.5 ng/mL	4.16 fold	≤ 1.7 pM										fold higher affinity against the STR graft of clone 33-03-G02 [4]: ~2 fold
PRO1480 (other, trispecific scDb-scFv; also called 38-27-A11 sc02 scDb-i/37-20-B03 sc09.1 scDb-o/19-01-H04 sc03 scFv) DIQMTQSPASLSASVGDRVTITCQASQSIGTYLAWYQQKPGKPPKLLIYRAFILASGVPSRFSGSGSGTDFTLTISSLQPEDFATYYCQSNFYSDSTTIGPNAFGTGTKVTVLGGGGGSEVQLVESGGGLVQPGGSLRLSCAASGFSFSANYYPCWVRQAPGKGLEWIGCIYGGSSDITYDANWTKGRFTISRDNSKNTVYLQMNSLRAEDTAVYYCARSAWYSGWGGDLWGQGTLVTVSSGGGGSGGGGSGGGGSGGGGSIQMTQSPSSLSASVGDRVTITCQASQSISNRLAWYQQKPGKAPKLLIYSASTLASGVPSRFSGSGSGTDFTLTISSLQPEDFATYYCQSTYYGNDGNAFGTGTKVTVLGGGGGSEVQLVESGGGLVQPGGSLRLSCAASGFSFNSDYWIYWVRQAPGKGLEWIASIYGGSSGNTQYASWAQGRFTISRDNSKNTVYLQMNSLRAEDTAVYFCARGYVDYGGATDLWGQGTLVTVSSGGGGSGGGGSIQMTQSPSSLSASVGDRVTITCQSSESVYSNNQLSWYQQKPGQPPKLLIYDASDLASGVPSRFSGSGSGTDFTLTISSLQPEDFATYYCAGGFSSSSDTAFGGGTKLTVLGGGGGSGGGGSGGGGSGGGGSEVQLVESGGGLVQPGGSLRLSCAASGFSLSSNAMGWVRQAPGKGLEYIGIISVGGFTYYASWAKGRFTISRDNSKNTVYLQMNSLRAEDTATYFCARDRHGGDSSGAFYLWGQGTLVTVSS	11.2 ng/mL	1.32 fold			3.4e-05 s⁻¹	4e+06 M⁻¹ s⁻¹		3.5e+06 M⁻¹ s⁻¹	2.27 ng/mL	1 fold		84.8 ng/mL	0.61 fold	232	261	6.44 ng/mL	43	360	114%	121%	kon [6]: 327000 M⁻¹ s⁻¹; rel. Area under the curve (AUCsample/AUCPRO1186), first line (6 h by the order of the upper part) [7]: 1.2 fold; rel. Area under the curve (AUCsample/AUCPRO1186), second line (24 h by the order of the upper part) [7]: 1.29 fold; rel. EC50 (EC50, PRO1186/EC50, sample), NF-kB reporter, 6 h [7]: 1.93 fold; rel. EC50 (EC50, PRO1186/EC50, sample), NF-kB reporter, 24 h [7]: 1 fold; rel. IC10/EC90 (ratio of sample/ratio of PRO1186), first line (6 h by the order of the upper part) [7]: 0.54 fold; rel. IC10/EC90 (ratio of sample/ratio of PRO1186), second line (24 h by the order of the upper part) [7]: 1.86 fold; Kd [8]: 370 pM; koff [8]: 0.00022 s⁻¹; kon [8]: 580000 M⁻¹ s⁻¹; Kd [3]: 8.5 pM; Kd [9]: 470 pM; koff [9]: 0.0003 s⁻¹; kon [9]: 640000 M⁻¹ s⁻¹; IC50 (ng/ml) (EC50 in Table 16C), NFkB reporter, HCC827 + IFNg, 24 h, +HSA [10]: 4.67 ng/mL; rel. IC50 (PRO1186/test), 24 h [10]: 1 fold
PRO1479 (other, trispecific scDb-scFv; also called 38-02-A04 sc13 scDb-i/37-20-B03 sc09.1 scDb-o/19-01-H04 sc03 scFv) DIQMTQSPASLSASVGDRVTITCQASQSIGTYLAWYQQKPGKPPKLLIYRAFILASGVPSRFSGSGSGTDFTLTISSLQPEDFATYYCQSNFYSDSTTIGPNAFGTGTKVTVLGGGGGSEVQLVESGGGLVQPGGSLRLSCAASGFSFSNSYWICWVRQAPGKCLEWIGCTFVGSSDSTYYANWAKGRFTISRDNSKNTVYLQMNSLRAEDTAVYYCARHPSDAVYGYANNLWGQGTLVTVSSGGGGSGGGGSGGGGSGGGGSIQMTQSPSSLSASVGDRVTITCQASQSINNVLAWYQQKPGKAPKLLIYRASTLASGVPSRFSGSGSGTDFTLTISSLQPEDFATYYCQSSYGNYGDFGCGTKVTVLGGGGGSEVQLVESGGGLVQPGGSLRLSCAASGFSFNSDYWIYWVRQAPGKGLEWIASIYGGSSGNTQYASWAQGRFTISRDNSKNTVYLQMNSLRAEDTAVYFCARGYVDYGGATDLWGQGTLVTVSSGGGGSGGGGSIQMTQSPSSLSASVGDRVTITCQSSESVYSNNQLSWYQQKPGQPPKLLIYDASDLASGVPSRFSGSGSGTDFTLTISSLQPEDFATYYCAGGFSSSSDTAFGGGTKLTVLGGGGGSGGGGSGGGGSGGGGSEVQLVESGGGLVQPGGSLRLSCAASGFSLSSNAMGWVRQAPGKGLEYIGIISVGGFTYYASWAKGRFTISRDNSKNTVYLQMNSLRAEDTATYFCARDRHGGDSSGAFYLWGQGTLVTVSS	10.7 ng/mL	1.38 fold						4.2e+06 M⁻¹ s⁻¹	2.65 ng/mL	0.86 fold	9.2 pM	50.4 ng/mL	1.04 fold	191	207	7.38 ng/mL	81.9	523	108%	119%	Kd [6]: 976 pM; rel. Area under the curve (AUCsample/AUCPRO1186), first line (6 h by the order of the upper part) [7]: 1.11 fold; rel. Area under the curve (AUCsample/AUCPRO1186), second line (24 h by the order of the upper part) [7]: 1.37 fold; rel. EC50 (EC50, PRO1186/EC50, sample), NF-kB reporter, 6 h [7]: 1.74 fold; rel. EC50 (EC50, PRO1186/EC50, sample), NF-kB reporter, 24 h [7]: 0.87 fold; rel. IC10/EC90 (ratio of sample/ratio of PRO1186), first line (6 h by the order of the upper part) [7]: 0.25 fold; rel. IC10/EC90 (ratio of sample/ratio of PRO1186), second line (24 h by the order of the upper part) [7]: 1.66 fold; Kd [8]: 1700 pM; koff [8]: 0.00054 s⁻¹; kon [8]: 330000 M⁻¹ s⁻¹; IC50 (ng/ml) (EC50 in Table 16C), NFkB reporter, HCC827 + IFNg, 24 h, +HSA [10]: 7.61 ng/mL; rel. IC50 (PRO1186/test), 24 h [10]: 0.87 fold
